Experiments:
Test in all cases: two-hybrid library CCmax;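 note: natural log of median RNA to DNA barcode read ratio; higher means stronger binding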
[1] = target: T1, 4H2698-AA
T1 chain: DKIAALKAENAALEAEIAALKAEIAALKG

[2] = target: T2, 4H2725-AA; details: mean of both orientations
T2 chain: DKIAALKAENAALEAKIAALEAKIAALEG

[3] = target: T3, 4H2865-AA; details: mean of both orientations
T3 chain: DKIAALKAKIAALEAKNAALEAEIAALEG

[4] = target: T4, 4H3009-AA; details: mean of both orientations
T4 chain: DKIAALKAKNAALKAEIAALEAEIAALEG

[5] = target: T5, 4H3016-AA; details: mean of both orientations
T5 chain: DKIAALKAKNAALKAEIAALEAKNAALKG

[6] = target: T6, 4H310-AA; details: mean of both orientations
T6 chain: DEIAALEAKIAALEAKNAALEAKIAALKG

[7] = target: T7, 4H3120-AA; details: mean of both orientations
T7 chain: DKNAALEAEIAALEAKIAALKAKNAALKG

[8] = target: T8, 4H3130-AA; details: mean of both orientations
T8 chain: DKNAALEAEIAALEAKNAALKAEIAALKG

[9] = target: T9, 4H3165-AA; details: mean of both orientations
T9 chain: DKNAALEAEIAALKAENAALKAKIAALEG

[10] = target: T10, 4H3381-AA; details: mean of both orientations
T10 chain: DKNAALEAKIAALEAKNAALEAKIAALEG

[11] = target: T11, 4H3395-AA; details: mean of both orientations
T11 chain: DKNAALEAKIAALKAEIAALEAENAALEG

[12] = target: T12, 4H3410-AA; details: mean of both orientations
T12 chain: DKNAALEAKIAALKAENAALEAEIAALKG

[13] = target: T13, 4H3590-AA; details: mean of both orientations
T13 chain: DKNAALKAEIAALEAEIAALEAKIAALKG

[14] = target: T14, 4H3697-AA; details: mean of both orientations
T14 chain: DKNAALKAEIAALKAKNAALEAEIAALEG

[15] = target: T15, 4H3753-AA; details: mean of both orientations
T15 chain: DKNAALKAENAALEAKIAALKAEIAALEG

[16] = target: T16, 4H3865-AA; details: mean of both orientations
T16 chain: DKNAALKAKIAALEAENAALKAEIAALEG

[17] = target: T17, 4H458-AA; details: mean of both orientations
T17 chain: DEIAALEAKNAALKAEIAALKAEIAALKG

[18] = target: T18, 4H485-AA; details: mean of both orientations
T18 chain: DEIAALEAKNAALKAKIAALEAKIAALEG

[19] = target: T19, 4H536-AA; details: mean of both orientations
T19 chain: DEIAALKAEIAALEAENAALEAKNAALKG

[20] = target: T20, 4H570-AA; details: mean of both orientations
T20 chain: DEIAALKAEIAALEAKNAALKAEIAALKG

[21] = target: T21, 4H629-AA; details: mean of both orientations
T21 chain: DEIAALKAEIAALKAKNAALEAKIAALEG

[22] = target: T22, 4H710-AA; details: mean of both orientations
T22 chain: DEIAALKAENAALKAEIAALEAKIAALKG

[23] = target: T23, 4H745-AA; details: mean of both orientations
T23 chain: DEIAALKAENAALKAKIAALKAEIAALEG

[24] = target: T24, 4H797-AA; details: mean of both orientations
T24 chain: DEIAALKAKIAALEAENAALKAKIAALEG

[25] = target: T25, 4H850-AA; details: mean of both orientations
T25 chain: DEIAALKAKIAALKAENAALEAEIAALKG

[26] = target: T26, 4H891-AA; details: mean of both orientations
T26 chain: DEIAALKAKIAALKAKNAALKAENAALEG

[27] = target: T27, 4H909-AA; details: mean of both orientations
T27 chain: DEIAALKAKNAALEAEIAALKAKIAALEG

[28] = target: T28, 4H930-AA; details: mean of both orientations
T28 chain: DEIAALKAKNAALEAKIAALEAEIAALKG

[29] = target: T29, 4H94-AA; details: mean of both orientations
T29 chain: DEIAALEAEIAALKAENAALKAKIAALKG

[30] = target: T30, 4H775-AA
T30 chain: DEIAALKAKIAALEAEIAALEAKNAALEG

[31] = target: T31, 4H816-AA; details: mean of both orientations
T31 chain: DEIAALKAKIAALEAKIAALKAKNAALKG

[32] = target: T32, 4H87-AA; details: mean of both orientations
T32 chain: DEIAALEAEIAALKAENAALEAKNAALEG

B1: 4H2698-AA (peptide)
chain: DKIAALKAENAALEAEIAALKAEIAALKG
- interaction score [1]: 2.27
- interaction score [2]: -1.02
- interaction score [3]: 0.889
- interaction score [4]: 2.02
- interaction score [5]: 0.539
- interaction score [6]: -0.185
- interaction score [7]: -1.3
- interaction score [8]: 1.19
- interaction score [9]: -1.39
- interaction score [10]: -0.904
- interaction score [11]: -1.65
- interaction score [12]: -1.56
- interaction score [13]: -0.95
- interaction score [14]: -1.12
- interaction score [15]: -1
- interaction score [16]: -1.07
- interaction score [17]: 2.26
- interaction score [18]: 1.49
- interaction score [19]: -1.49
- interaction score [20]: 0.35
- interaction score [21]: -1.54
- interaction score [22]: 1.79
- interaction score [23]: 2.2
- interaction score [24]: -1.25
- interaction score [25]: -0.992
- interaction score [26]: -1.59
- interaction score [27]: -0.0319
- interaction score [28]: -0.113
- interaction score [29]: -0.915

B2: 4H775-AA (peptide)
chain: DEIAALKAKIAALEAEIAALEAKNAALEG
- interaction score [30]: 1.62
- interaction score [31]: 1.66
- interaction score [32]: -1.7

Source: paper PMC10397247
